Four substances from article doi:10.1101/2023.06.15.543498 can be followed below.

The target in the assay is E. coli 70S ribosomes without a bound tRNA (E. coli (endogenous in strain MRE600)) (UniProt P0A7L0). The assay is described as follows: populations of particle classes in cryo-EM samples.

As for “EQ2-EttA (hydrolysis-deficient EQ2 mutant of E. coli EttA, Energy-dependent translation throttle A) (from UniProt P0A9W3 1-555) (enzyme)”, the dissociation constant Kd was 62 µM. In turn, “EQ2-Uup (hydrolysis-deficient EQ2 mutant of E. coli Uup) (from UniProt P43672 1-635) (enzyme)” displayed a Kd of over 12 µM. “EQ2-YbiT (hydrolysis-deficient EQ2 mutant of E. coli YbiT) (from UniProt P0A9U3 1-530) (enzyme)” came in with a Kd of 1.2 µM. Under “EQ2-YheS (hydrolysis-deficient EQ2 mutant of E. coli YheS) (from UniProt P63389 1-637) (enzyme)” stands over 19 µM.

The Kd is the concentration at which binding is half-saturated. Lower therefore signals higher affinity.
